US20060177907A1 (University of California, published 2006)
Residue numbers refer to the chain shown, from its start. In names and notes the source's numbering stands. Like-named read-outs stand apart in the source and are kept apart here.

B1: hrg, 60-residue EGF-like domain of human heregulin beta1 (residues 177-237) (ligand)
chain: SHLVKCAEKEKTFCVNGGECFMVKDLSNPSRYLCKCPNEFTGDRCQNYVMASFYKHLGIEF
notes: also called I^25 hrg
B2: HER3-ECD^I-II (residues 20-329), recombinant domains I and II of HER3 expressed in Drosophila S2 cells (receptor, not shown: small tags and cut ends)
chain: SEVGNSQAVCPGTLNGLSVTGDAENQYQTLYKLYERCEVVMGNLEIVLTGHNADLSFLQWIREVTGYVLVAMNEFSTLPLPNLRVVRGTQVYDGKFAIFVMLNYNTNSSHALRQLRLTQLTEILSGGVYIEKNDKLCHMDTIDWRDIVRDRDAEIVVKDNGRSCPPCHEVCKGRCWGPGSEDCQTLTKTICAPQCNGHCFGPNPNQCCHDECAGGCSGPQDTDCFACRHFNDSGACVPRCPQPLVYNKLTFQLEPNPHTKYQYGGVCVASCPHNFVVDQTSCVRACPPDKMEVDKNGLKMCEPCGGLCPK
notes: Monomer by light scattering and ultracentrifugation; The N-terminal Drosophila leader comes from the vector; the protein is secreted; also called HER3^I-II; H3 I-II
B3: HER3^I-II V110A (receptor, not shown: small tags and cut ends)
chain: B2 chain with V91A
notes: also called H3^I-II V110A
B4: trx-hrg, thioredoxin-heregulin fusion with a C-terminal His and S-tag (ligand)
chain: B1 chain
notes: Made as in Landgraf et al. 1998; also called S-tagged hrg; immobilized hrg; not shown: thioredoxin; C-terminal His tag and S-tag
B5: HER3^I-II N44A (receptor, not shown: small tags and cut ends)
chain: B2 chain with N25A
notes: also called H3 I-II Mutant N44A

Legend:
[1] = target: HER3^II-CTD (residues 184-1342), transiently expressed on COS 7 cells (human, UniProt P21860 184-1342); test: specific binding of radio-iodinated hrg to COS 7 cells transiently expressing the HER3 construct
[2] = target: HER3^FL E64A (residues 20-1342 with a mutation of E64A), transiently expressed on COS 7 cells (human, UniProt P21860 20-1342); test: as above
[3] = target: T1, HER3-ECD^I-IV, soluble extracellular domains of recombinant HER3 purified from Chinese hamster ovary cells (human, UniProt P21860 20-643); test: method not given; given as the reference for the SPR value of HER3-ECD^I-II (68 nM, trx-hrg immobilized); form of hrg not stated
T1 construct: also called nonproteolyzed HER3-ECD^I-IV

[4] = target: T1, HER3-ECD^I-IV, soluble extracellular …; test: method not given; compared with the Kd of HER3-ECD^I-II (68 nM); form of hrg not stated
HER3^I-IV E64A [5] = target: T2, HER3^I-IV E64A (human, UniProt P21860 20-643); test: native gel mobility shift
T2 construct: also called H3^I-IV E64A
Description: (§1) FIG. 12. […] HER3^I-IV and the HER3^I-IV mutants were analyzed on a native Phast gel (10-15%) in the absence (−) and presence (+) of equimolar hrg. The HER3^{I-IV E64A} was also analyzed in the absence (lane 2) and presence (lane 4) of hrg. Formation of a hrg-HER3^I-IV complex is observed with HER3^I-IV, but not with […], B, HER3^I-IV and HER3^{I-IV E64A} were analyzed in a “pull down assay” in which S-tagged hrg was immobilized on S-protein resin (lanes 4-9) and HER3^I-IV could be specifically eluted with 1 μM hrg and detergent (lane 6 and 8), but HER3^{I-IV E64A} could not be eluted with PBS or 1 μM hrg (lanes 5 and 7). A small amount of HER3^{I-IV E64A} could be eluted with detergent (lane 9) which was probably due to some binding or non-specific interaction.
To determine the effects of cleavage of HER3^I-IV on its ability to bind hrg, a gel mobility shift assay was performed. […] (FIG. 12A).

[6] = target: B4; test: SPR, trx-hrg immobilized (68 nM) compared with HER3-ECD^I-IV (2.3 nM)
Description: (§2) Trx-hrg (13 μM) in MES buffer (100 mM pH 6.0) was immobilized on a BIAcore CM5 chip using standard N-hydroxysuccinimide/1-ethyl-3-(3-dimethylaminopropyl)carbodiimide amine-coupling chemistry. The surface of the chip was blocked with ethanolamine and could be regenerated with 5.0 M NaCl and washes with running buffer (PBS+surfactant). HER3-ECD^I-II (filtered through a 0.1-μm filter unit (Millipore, Bedford, Mass.)) in running buffer was applied to the chip at various concentrations (in triplicate) to determine the dissociation constant. Data were analyzed with the BIAevaluation software. Competition experiments were carried out using hrg at an equimolar concentration to HER3-ECD^I-II.
(§3) To further confirm that HER3-ECD^I-II binds hrg, we analyzed the interaction by SPR (BIAcore). Trx-hrg fusion protein was immobilized on a BIAcore chip for these measurements. […] This interaction could be inhibited by stoichiometric concentrations of hrg.

[7] = target: B4; test: SPR (BIAcore), immobilized trx-hrg
[8] = target: B4; test: SPR (BIAcore), immobilized trx-hrg
[9] = target: B2; test: SPR (BIAcore), trx-hrg immobilized, HER3-ECD^I-II in solution
Description: as §2, §3

HER3^I-IV E64A [10] = target: T2, HER3^I-IV E64A; test: pull-down on trx-hrg-coupled S-protein agarose
Description: as §1
To confirm that HER3^I-IVE64A has decreased binding affinity for hrg, we used a “pull down” assay in which we measured the HER3^I-IV and HER3^I-IVE64A that could be dissociated from immobilized thioredoxin-heregulin (trx-hrg) by the addition of hrg. Using trx-hrg coupled S-protein agarose, HER3^I-IV was eluted with hrg and detergent (FIG. 12B, lanes 6 and 8), but not with PBS (FIG. 12B, lane 4). No HER3^{I-IV E64A} could be recovered by elution with PBS, hrg or detergent (FIG. 12B, lanes 5, 7 and 9).

HER3^I-II N44A = target: B5; test: SPR (BIAcore), immobilized trx-hrg
HER3^I-II V110A = target: B3; test: SPR (BIAcore), immobilized trx-hrg
HER3^I-II E43A = target: T3, HER3^I-II E43A (human, UniProt P21860 20-329); test: SPR (BIAcore), immobilized trx-hrg
T3 construct: also called H3 I-II Mutant E43A

HER3^I-II V66A = HER3^I-II V66A (human, UniProt P21860 20-329); test: SPR (BIAcore), immobilized trx-hrg
HER3^I-II K51A = target: T4, HER3^I-II K51A (human, UniProt P21860 20-329); test: SPR (BIAcore), immobilized trx-hrg
T4 construct: also called H3^I-II K51A

T3 sequence (P21860 20-329 E43A): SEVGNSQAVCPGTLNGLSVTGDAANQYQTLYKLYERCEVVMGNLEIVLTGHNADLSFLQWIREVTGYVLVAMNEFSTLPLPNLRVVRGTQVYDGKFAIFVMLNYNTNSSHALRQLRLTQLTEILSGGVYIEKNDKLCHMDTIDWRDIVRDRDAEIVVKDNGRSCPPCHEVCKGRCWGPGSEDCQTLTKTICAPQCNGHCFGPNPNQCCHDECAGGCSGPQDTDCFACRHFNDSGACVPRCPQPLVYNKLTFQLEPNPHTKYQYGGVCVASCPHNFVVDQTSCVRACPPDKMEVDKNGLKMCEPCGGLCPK
Sequence of HER3^I-II V110A (P21860 20-329 V110A): as the sequence (P21860 20-329 E43A) above, with A24E, V91A counted along it
Sequence of HER3^II-CTD (residues 184-1342), transiently expressed on COS 7 cells (P21860 184-1342 E560G/E1064G): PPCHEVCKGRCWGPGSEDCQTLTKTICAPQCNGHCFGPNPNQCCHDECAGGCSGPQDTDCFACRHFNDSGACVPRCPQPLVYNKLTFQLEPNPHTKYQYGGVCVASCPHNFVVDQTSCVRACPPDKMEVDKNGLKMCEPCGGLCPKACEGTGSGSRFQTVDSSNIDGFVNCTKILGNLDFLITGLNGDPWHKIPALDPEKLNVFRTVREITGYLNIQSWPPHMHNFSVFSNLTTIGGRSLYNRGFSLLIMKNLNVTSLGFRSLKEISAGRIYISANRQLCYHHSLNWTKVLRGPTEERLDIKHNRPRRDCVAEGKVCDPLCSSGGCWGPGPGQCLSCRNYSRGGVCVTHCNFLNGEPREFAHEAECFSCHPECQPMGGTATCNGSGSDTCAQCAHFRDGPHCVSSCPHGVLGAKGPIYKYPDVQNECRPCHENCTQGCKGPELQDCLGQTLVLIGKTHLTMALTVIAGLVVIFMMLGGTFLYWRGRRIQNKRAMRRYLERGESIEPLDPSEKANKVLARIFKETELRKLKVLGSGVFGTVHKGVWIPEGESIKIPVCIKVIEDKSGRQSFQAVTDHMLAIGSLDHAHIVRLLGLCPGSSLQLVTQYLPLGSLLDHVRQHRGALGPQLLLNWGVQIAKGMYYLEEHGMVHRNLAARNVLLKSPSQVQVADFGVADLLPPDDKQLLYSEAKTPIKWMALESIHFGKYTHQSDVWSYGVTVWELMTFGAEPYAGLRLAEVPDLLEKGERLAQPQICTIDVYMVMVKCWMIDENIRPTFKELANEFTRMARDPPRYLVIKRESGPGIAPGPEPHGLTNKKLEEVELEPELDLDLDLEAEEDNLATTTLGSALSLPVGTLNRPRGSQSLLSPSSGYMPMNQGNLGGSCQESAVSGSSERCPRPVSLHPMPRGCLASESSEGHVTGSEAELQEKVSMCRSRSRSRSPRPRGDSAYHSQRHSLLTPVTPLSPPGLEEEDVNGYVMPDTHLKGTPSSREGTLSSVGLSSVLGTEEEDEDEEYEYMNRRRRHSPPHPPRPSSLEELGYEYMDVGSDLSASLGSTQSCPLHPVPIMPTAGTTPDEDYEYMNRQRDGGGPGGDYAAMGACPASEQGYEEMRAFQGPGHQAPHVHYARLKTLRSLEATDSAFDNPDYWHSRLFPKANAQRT
Sequence of HER3^I-II N44A (P21860 20-329 N44A): as the sequence (P21860 20-329 E43A) above, with A24E, N25A counted along it

B1 was tested, and the binding result [1] was “no binding”, the binding result [2] was “no binding” and the Kd [3] was 2.3 nM. For the same binder, the Kd [4] was 1.9 nM and the binding result (HER3^I-IV E64A [5]) was “no binding (tested: 1:1 molar ratio)”.

B2 was tested, and the “fold lower binding affinity than HER3-ECD^I-IV” value [6] was 30 fold.

B3 was tested, and the “fold increase in binding affinity (against HER3^I-II)” value [7] was 4 fold and the “fold increase in binding affinity (against HER3^I-II)” value [8] was 5 fold.

With B4 the Kd [9] was 68 nM, the koff [9] was 0.00727 s⁻¹ and the kon [9] was 107000 M⁻¹ s⁻¹. The binding result (HER3^I-IV E64A [10]) was “no binding”, the Kd (HER3^I-II N44A) was 95.5 nM and the Kd (HER3^I-II V110A) was 15.4 nM. It also gave a Kd (HER3^I-II E43A) of 63 nM, a Kd (HER3^I-II V66A) of 60.5 nM and a Kd (HER3^I-II K51A) of 63 nM.

For B5, the “fold decrease in binding affinity (against HER3^I-II)” value [7] was 1.5 fold.
